The results in this text go back to IntAct's records for PubMed 22232549.

B1: Extra-large guanine nucleotide-binding protein 2 (Arabidopsis thaliana (Mouse-ear cress)), C6KIE6 (parent)
chain: MAAVIRKLLPFPSPNPKRDNRESDDDDETSSGYRIEYSFASEYKGPLIANVPRALPVEVDQIPTALPVSFSSLRSGISYPVAPLVMTKDTKRPPDSGIEKKNGFVDSAAGSSVVLIGRDVVSGSSSSSSSKRLDVPEEVKSPADFRLSPSSPLSASAREEDHLDDDRVSDVGPRAVRFVEPFQSSECDESSYVSDGESIAATHRAERKGKRGSCYRCQLGNRFTEKEVCIVCDAKYCFNCVRRAMGAMPEGRKCQACIGYRIDESKRASLGKCSRMLKRHLTDSELRQVMNAEITCKANQLPSRLIIVNDKPLSEDELYTLQTCPNPPKKLKPGHYWYDKVAGYWGKIGEKPSQIISPNNSIGGYISEKVSNGDTEIYINGREITKPELTMLKWAGVQCEGKPHFWVDSDGSYREEGQKHPIGNIWSKKRAKIACAVFSLPVPPASSAVEPYDVPLYEQKMLNKLLLIGSEKGGATTIYKQARSLYNVSFSLEDRERIKFIIQTNLYTYLAMVLEAHERFEKEMSNDQSSGNVGDETSAKPGNSINPRLKHFSDWVLKEKEDGNLKIFPPSSRENAQTVADLWRVPAIQATYKRLRDTLPRNAVYFLERILEISRSEYDPSDMDILQAEGLSSMEGLSCVDFSFPSTSQEESLESDYQHDTDMKYQLIRLNPRSLGENWKLLEMFEDADLVIFCVSLTDYAENIEDGEGNIVNKMLATKQLFENMVTHPSLANKRFLLVLTKFDLLEEKIEEVPLRTCEWFEDFNPLISQNQTSRHNPPMAQRAFHYIGYKFKRLYDSILEPVNMRGRSFKPKLFVCQVSLESDTVDNALRYAREILKWHVEETSMFQEMSTTSIEASSSS
partner: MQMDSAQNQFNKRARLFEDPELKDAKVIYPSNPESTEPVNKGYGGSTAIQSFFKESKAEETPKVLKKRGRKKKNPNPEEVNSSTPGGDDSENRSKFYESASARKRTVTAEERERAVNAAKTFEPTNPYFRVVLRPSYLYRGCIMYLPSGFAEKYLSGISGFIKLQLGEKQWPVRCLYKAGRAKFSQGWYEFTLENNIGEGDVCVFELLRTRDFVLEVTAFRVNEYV

In this experiment the parent is B1. The conditions noted are these: with rem19_arath REM19, Q9XIB5.
As to T476N, the “effect of a mutation on the interaction” value was “disrupting interaction”.
